The target of the experiment is human CD22-beta-ECD-His tagged soluble antigen (human) (UniProt P20273). Description: SPR (BIACORE 3000), antibody coupled to the chip, soluble CD22-beta-ECD-His injected, 25 C. For orientation: In SPR one partner is held on a chip, and binding of the other changes the refractive index at the surface.
human CD22-beta-ECD-His tagged soluble antigen (human), sequence (P20273 other isoform, or with tags, fused parts or gaps): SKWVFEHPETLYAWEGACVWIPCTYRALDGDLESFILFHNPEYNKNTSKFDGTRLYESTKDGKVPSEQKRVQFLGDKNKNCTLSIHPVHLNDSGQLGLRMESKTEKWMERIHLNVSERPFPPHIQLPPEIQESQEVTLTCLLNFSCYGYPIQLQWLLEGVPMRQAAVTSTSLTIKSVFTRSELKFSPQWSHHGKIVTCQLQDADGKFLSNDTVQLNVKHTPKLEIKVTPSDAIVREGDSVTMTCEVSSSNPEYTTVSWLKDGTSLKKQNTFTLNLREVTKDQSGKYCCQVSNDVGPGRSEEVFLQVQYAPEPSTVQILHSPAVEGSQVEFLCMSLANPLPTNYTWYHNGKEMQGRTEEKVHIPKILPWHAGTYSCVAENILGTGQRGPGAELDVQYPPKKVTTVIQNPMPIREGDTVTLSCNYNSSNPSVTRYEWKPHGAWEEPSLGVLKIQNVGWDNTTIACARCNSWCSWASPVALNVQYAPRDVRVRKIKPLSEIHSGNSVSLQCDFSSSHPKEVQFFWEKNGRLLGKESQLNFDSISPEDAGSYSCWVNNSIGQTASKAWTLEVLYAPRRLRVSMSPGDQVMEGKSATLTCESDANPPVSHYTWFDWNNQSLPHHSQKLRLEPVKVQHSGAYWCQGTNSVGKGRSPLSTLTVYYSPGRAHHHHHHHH

B1: anti-CD22 antibody RFB4 (antibody, from another filing, V domains shown)
VH: EVQLVESGGGLVKPGGSLKLSCAASGFAFSIYDMSWVRQTPEKRLEWVAYISSGGGTTYYPDTVKGRFTISRDNAKNTLYLQMSSLKSEDTAMYYCARHSGYGSSYGVLFAYWGQGTLVTVSA
VL: DIQMTQTTSSLSASLGDRVTISCRASQDISNYLNWYQQKPDGTVKLLIYYTSILHSGVPSRFSGSGSGTDYSLTISNLEQEDFATYFCQQGNTLPWTFGGGTKLEIK
One may read the Kd as the equilibrium constant for the complex coming apart. High values mean weaker binding, low ones tighter binding. As usually defined, the koff is the rate constant with which the complex falls apart. Low values mean a long-lived complex, high ones a short-lived complex. What is called kon is the second-order rate constant of association. A higher kon goes with fast association. The molecule B1 had a Kd of 4.2 nM, an off-rate constant (koff) of 0.00014 s⁻¹ and an association rate constant (kon) of 33000 M⁻¹ s⁻¹.

Source of the values: patent US20130171170A1.
